{"source": "paper PMC5799254", "about": "“Target identification of small molecules using large-scale CRISPR-Cas mutagenesis scanning of essential genes” (Nature Communications, 2018)", "biological_target": "the molecule itself", "assay": "crystal structure; co-crystal of NAMPT (10 mg/mL) with a 5-fold excess of KPT-9274; hanging drops, 20 °C, reservoir 0.2 M NaCl, 0.1 M Tris pH 8.5, 22% PEG 3350", "data": [{"protein": "nicotinamide phosphoribosyltransferase (NAMPT) (enzyme, human, UniProt P43490 1-491, looked up, nicotinamide phosphoribosyltransferase (NAMPT, NMPRTase), human, full length; also called NMPRTase) MNPAAEAEFNILLATDSYKVTHYKQYPPNTSKVYSYFECREKKTENSKLRKVKYEETVFYGLQYILNKYLKGKVVTKEKIQEAKDVYKEHFQDDVFNEKGWNYILEKYDGHLPIEIKAVPEGFVIPRGNVLFTVENTDPECYWLTNWIETILVQSWYPITVATNSREQKKILAKYLLETSGNLDGLEYKLHDFGYRGVSSQETAGIGASAHLVNFKGTDTVAGLALIKKYYGTKDPVPGYSVPAAEHSTITAWGKDHEKDAFEHIVTQFSSVPVSVVSDSYDIYNACEKIWGEDLRHLIVSRSTQAPLIIRPDSGNPLDTVLKVLEILGKKFPVTENSKGYKLLPPYLRVIQGDGVDINTLQEIVEGMKQKMWSIENIAFGSGGGLLQKLTRDLLNCSFKCSYVVTNGLGINVFKDPVADPNKRSKKGRLSLHRTPAGNFVTLEEGKGDLEEYGQDLLHTVFKNGKVTKSYSFDEIRKNAQLNIELEAAHH", "values": [{"measurement": "stoichiometry N", "value": 2}]}]}
